Drawing on article PMC6362308, this text covers percent of the protein in the pellet for one substance.

The assay addresses taxol-stabilized microtubules. The assay can be described thus: co-sedimentation; 0.1 uM recombinant RECQL4 with or without 2 uM taxol-stabilized microtubules, 15 min, 20,000 g for 10 min at RT; supernatant and pellet analysed by Coomassie staining and Western blot against His6-tag (Fig 1B). In general terms: A western blot detects proteins with antibodies after separation by electrophoresis.

Chain of taxol-stabilized microtubules (P68363 whole entry, chain 1 of 2): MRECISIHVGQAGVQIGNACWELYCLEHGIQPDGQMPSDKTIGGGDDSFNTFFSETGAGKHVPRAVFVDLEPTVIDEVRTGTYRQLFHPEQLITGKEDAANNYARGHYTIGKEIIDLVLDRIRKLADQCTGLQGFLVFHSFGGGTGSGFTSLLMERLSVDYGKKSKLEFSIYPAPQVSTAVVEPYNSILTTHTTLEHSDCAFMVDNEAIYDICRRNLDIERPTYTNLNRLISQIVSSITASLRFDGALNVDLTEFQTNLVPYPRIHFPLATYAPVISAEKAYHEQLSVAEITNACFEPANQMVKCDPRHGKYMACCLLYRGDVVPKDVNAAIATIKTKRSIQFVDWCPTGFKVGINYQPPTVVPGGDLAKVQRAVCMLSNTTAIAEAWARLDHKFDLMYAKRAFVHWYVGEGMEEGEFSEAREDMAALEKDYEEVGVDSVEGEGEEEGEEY
Chain of taxol-stabilized microtubules (A8K068 whole entry, chain 2 of 2, further chain): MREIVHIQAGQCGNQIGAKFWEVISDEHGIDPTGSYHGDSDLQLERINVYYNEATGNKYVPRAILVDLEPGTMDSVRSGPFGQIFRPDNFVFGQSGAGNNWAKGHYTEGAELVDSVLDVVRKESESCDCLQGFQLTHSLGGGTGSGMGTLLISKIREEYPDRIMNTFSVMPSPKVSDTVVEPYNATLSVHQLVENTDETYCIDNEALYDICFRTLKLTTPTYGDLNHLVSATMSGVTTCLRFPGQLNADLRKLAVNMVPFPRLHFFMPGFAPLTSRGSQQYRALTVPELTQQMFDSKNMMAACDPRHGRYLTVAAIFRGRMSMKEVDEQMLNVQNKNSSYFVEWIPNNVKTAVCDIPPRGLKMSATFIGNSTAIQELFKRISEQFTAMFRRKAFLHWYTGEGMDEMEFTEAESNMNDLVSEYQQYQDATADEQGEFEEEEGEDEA

As for “Recombinant Xenopus RECQL4 expressed in insect cells (natural protein)”, the percent of the protein in the pellet stood at 100%.
